Test results from article PMC4323627 (Journal of molecular biology, 2014).

How the values were obtained:
[1] = target: T1, human Shq1 CS domain without 6XHis-tag (hCS) (human, UniProt Q6PI26 1-96, uniformly 15N-labelled); assay: NMR titration
T1 sequence (looked up): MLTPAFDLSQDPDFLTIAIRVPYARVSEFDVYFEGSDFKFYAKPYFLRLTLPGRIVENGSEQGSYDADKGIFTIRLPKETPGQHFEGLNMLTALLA

crystal structure = target: the molecule itself; assay: crystal structure

In the case of LNVRTTHYTPLA [Dys2S peptide (dyskerin residues 62-73)], the Kd [1] is reported as > 500 µM.

B1: human Shq1 CS domain P22S with N-terminal 6XHis-tag (his-hCS(P22S)) (domain or fragment)
chain: MAHHHHHHVDDDDKMLTPAFDLSQDPDFLTIAIRVSYARVSEFDVYFEGSDFKFYAKPYFLRLTLPGRIVENGSEQGSYDADKGIFTIRLPKETPGQHFEGLNMLTALLA
B1: binds (crystal structure).
